Measured values published in PMC6747193.

Molecular target: C1QBP Recombinant Human Protein (gC1q-R) (human) (UniProt Q07021)
Assay: ELISA; solid-phase microplate competition: gC1q-R coated on wells; polyclonal antibodies against gC1q-R amino acids 76-104 or 221-249 added at 4 µg/mL 1 h before idInlB at 0.4 µg/mL; idInlB without antibodies as positive control; bound idInlB detected with anti-His polyclonal antibody

Chain of UniProt Q07021 (Q07021 74-282): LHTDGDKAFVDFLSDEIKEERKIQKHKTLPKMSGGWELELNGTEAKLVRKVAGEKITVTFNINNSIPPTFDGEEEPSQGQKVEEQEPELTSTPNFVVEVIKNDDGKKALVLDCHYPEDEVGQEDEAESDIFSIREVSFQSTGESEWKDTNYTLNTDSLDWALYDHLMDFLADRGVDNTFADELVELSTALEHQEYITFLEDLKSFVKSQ

“InlB internalin domain isoform idInlB9 (lineage I, from L. monocytogenes strain VIMHA015) (from UniProt P0DQD2 36-321) (domain or fragment)” was tested, and the fold decrease of binding with the antibody against gC1q-R amino acids 76-104, against idInlB9 without antibody was 1.6 fold and the fold decrease of binding with the antibody against gC1q-R amino acids 221-249, against idInlB9 without antibody was 1.25 fold.
